In a protein production outcome set (Wang et al. 2014):

Assay: label from the status in PepcDB records

Sequence	protein production
MPKSPHKLFKANSFWKENNLILREIKHFRKIAILAVIFSFLAASFEGVSIGFLLSFLQKLTSPNDPIQTGISWVDMILAADAWPIPPIYRISLLILLSTWMRATFNYFGGVYTESAQLNLADRLHKQIFEQLQALRLSYFAQTRSGELINTITTEIERIKQGFSGLAFVLTRIMTVCVYFVVMFSISWQLSIISVLIFLLLAVGLSTLNKRVRETSFGISHANAQFTAVAVEFINGIRTIQAFGTQEFERQRFYKASTNQLNAAIKVVLAWTLVKPIAEGIATTVLISLIVISFATFTLPVASLLTFFFVLVRVIPNIQDINGTVAFLSTLQGSSENIKNILQTNNKPYLKNGKLHFQGLKRSIDLVSVDFGYTADNLVLNNITLTIERGKTTALVGASGAGKTTLADLIPRFYDPTEGQILVDGLDVQYFEINSLRRKMAVVSQDTFIFNTSIRDNIAYGTSGASEAEIREVARLANALQFIEEMPEGFDTKLGDRGVRLSGGQRQRIAIARALLRDPEILILDEATSALDSVSERLIQESIEKLSVGRTVIAIAHRLSTIAKADKVVVMEQGRIVEQGNYQELLEQRGKLWKYHQMQHESGQTNS	failed
MPKTLLIPGLDGSPAAHWQQWWALRDPDALLLDLSDVSRPVPAVWEIEVAGAILQHPGAILVGHSLGAILIARLLAKWPHLKVGGAILVAPAEPRHSDRTESFGPIFEESLGVPAYVVSSRNDPWMSFTQAERLARAWRADVVDLGFAGHINVDSGFGPWPGGVVLRDELARRPVP	failed
MPLELVVIHSYKSSDMKPYLLSAFAAILSTSAMAYDVKSGGKTSVKKDGANAYSLPATNLPMSKRLDFSVGNSFFRNPWVQAPATTDARDGLGPLFNTNGCQNCHIKDGRGHPPEKDDIHAVSMLVRLSIPAMTPKQKKAYIMDGGIPEPTYGGQLQDFALQDQTPEGKIAITYTDVPVEFKDGSKVTLRKPTLKITDLGYGDMHPDTQFSARVAPPMIGLGLLESIPDETLLKWADENDSDSDGISGKVNKVWDIEKGDFSLGRFGWKAGQPTLMQQNAAAFNGDVGLTSHLFPNENCTAKQSLCEELPNGGKPEVSQNILDFVEFYSQHLAVPIRRNVNDPDVQLGQKIFAASGCESCHKTSVKTTKRADRPALSEQLIHPYTDLLLHDMGEGLADHRPEYLANGREWRTPPLWGIGYTEEVNGHTYFLHDGRARNLMEAVLWHGGEAEQAKQNVLSLNQKERDALIAFLNSL	failed
MPLFSQHTARFSPDVPLEGTSSRELLKRYQPLETLATGGFGSIEICRDTHLRRRVAIKRIPLINGAGMPASDIMDVLREAHTAAMLQHPNIVQVIDFTHDTAYAYLVMEYVDGMSLAEFLHRVDGHSLTFDEAAAIADALGQALTFAHSNGVLHLDIKPANVLIDHSGNVKLTDFGMARLSSAGGFGGSRGGTIGYMPPEQLDIETGTVDERADVFALACVIYEGLCGSAPFMAATPADSLGHIIGGATYPSELIPHFPPGAESALMSALSPMPQDRPNSIEAFCDQLLAGLGSVREGRRSLEQMVGELSDDEQELDDIEPSHYEDDAIEVDPALGWAGTRWSHARDYTMRTISALTCGTFSFLLMQTAGVAALPGLVIAAIAIGAAAGLAPQIGSAISAVGFLVLMANATMQAQGILSMLPVAVIFAAAMSGWWIAWGRTETAASATLTCALALGCLTGNTFLAAGVAAGVASFWLGPASAAAATGMGALFARLATVALSAGGVLGLGNVAAALGDPLLWAAFVLVAATAAASSALLNVHAKRANQGSNLAAIAAIAVTGIGCAAASCLAHHMEIASLAAAVIAKAAVAGILSSIIVGICLYLLGYQRTYTESDLS	failed
MPLLTIGDQFPAYQLTALIGGDLSKVDAKQPGDYFTTITSDEHPGKWRVVFFWPKDFTFVCPTEIAAFSKLNDEFEDRDAQILGVSIDSEFAHFQWRAQHNDLKTLPFPMLSDIKRELSQAAGVLNADGVADRVTFIVDPNNEIQFVSATAGSVGRNVDEVLRVLDALQSDELCACNWRKGDPTLDAGELLKASA	not failed
MPLPKSLKYGDTIGIYSPSSPVTYTSPKRFERAKSYLLQKGFHILEGSLTGRYDYYRSGSIQERAKELNALIRNPNVSCIMSTIGGMNSNSLLPYIDYDAFQNNPKIMIGYSDATALLLGIYAKTGIPTFYGPALVPSFGEFEPFVDDTYKYFLETLLHDQALPYNIKQPLFWSDEFINWEEKTKEKELRPNNWISVTNGQATGRVIGGNLNTIQGIWGSPYMPCIQEGDILFIEDSSKDAATIERSFSFLKINGVFDKVSGIILGKHEQFDDCGTNRKPYEILLEVLQNQRIPLLADFDCCHTHPMITMPIGVQVKMDATNKTIHILEKWKI	not failed
MPLSTSDNIAAVIVTHKRVELLRASLEVVAAQTHPVKWIIVVDNGCEDAVRDLLHSVAGDRGIYLPSHTNLGGAGGFAYGFLTALALGADAIWCADDDGRPEGPQVLATLIDAAVTHQLDEVSPVVCNMDDPNRLAFPLRRGLEWRRYRSELIDPNNPSDTLLPGIASLFNGALISAAAMERIGVPDLRLFIRGDEVEYHRRLVRSGLNFGTCLTTAYLHPDGSDEFKPILGGRMHTQYPASDAKRYFTYRNRGYLMNQPGMRRLLPQEYARFAWFFLIQRRDPRGFLEWFKLHQLGRSEKFERPLEHHHHHH	failed
MPLSYSSPSLSEERSDDPSKYDGDFGVPQICFCGKQLELVERLIGDQKKTFLKCPMSGQDDNYHVDKGWDLVVHEQCFCIDKRFGEHRELIQNAFKFGGDSNRLQINQIRAEIEDLKDRLDKKDAEITRLMDALGKK	failed
MPLTMLSEGKGCRIKEVRAGLELKRRLTEMGFTPSSSVRLIGCERGNLLVNVNGARYALGKGMAMKIMVEPDPCEGVELGLEHHHHHH	failed
MPMSSPMMSDTDREDLDAILRTVLVSDKGYVETLSRATGLNGKALTDKAAFTLSRLSAVGGYDYENEALEVAGRYLAEARFTEAEAIYRQVLVSFPEKHGFNHPGYATRLNNLAEVLRATARYDEAESLYRQALEIDREALGLEHPDYGIDLLNLAGLLHDRGRYEAAEPLYREAMTIIGKVVGEEHYRYATAQNNLAGLLQDMLRFEEAEALCRQALEITSKTLGESHSVYATRLNNLAELLGTTERYGEAEPLYRQALEITQKTLGEEHPDFAIRLNNLAVLLKATGRYEEAEPLYRQALEITHRTLGEAHPDYATRLNNFAGLLDSTERYDEAEPLYRQALEICEKALGVEHPSTQTVRANLELFLSEKPD	failed
MPNFKSKKIKEINLPYSKDDVEFLWLAKNDNVSLIYTKVQEESFFLQIKKAQNGFVIKGDKHTKPSKIGYLQKALKIFKEGFCEDIINEAFGLKNNALIEKTPFIVDNFDELLSRLQGKIYIEIGFGSGRHLLYQAKENPNVLILGVEIYNPALTQVAKLAKAQNVNNILLIQSDARLLLSVLKSKSVEKIFLHFPVPWDKKPHRRVIGKDFCKECARVLVQNGRFELRTDSFEYFNFTLEQFLTFPAPKFSLRKNENLEISSKYEDRWKKQEKNIYDLWVWNFNQECKNYELNEFNLSSVEFSKEDLKKIEQNFKNITIKKDDFFLHFESIYKQDENLLLKVAFGAFNKPEHCYLHLDKTIDFAFKEPFKIQENIKAINELKEILKVQFKI	failed
MPNNDSFYKKVLDNLYDGIYFVDEQRRITYWNKGAQMLTGYGEKEVIGRNCHDIFLHLDSNGNGICSDACPIEKTITDGRKRDEESFLHHKDGHLVPVCLRVAPIQDTDGQMVVAVEVTGDHSPRHALRQQLENLQRLALCDPLTTIANRRYVEMSLNSRLEEMRRYGWHFGILFLDVDHFKQINDTHGHDTGDRVLKMVAKTLVNSARSFDVVGRWGGEEFIAVLANISRRQLPRIADRFRHLVEQSSFRLDDRLLRVTVSVGATMSHLDDTVESLVQRADTLMYRSKQAGRNCVSIGFGEEMPETSATPSASP	failed
MPNQVLFCITKMRYEEKRIYHYLEESGLSIKIMLDSSNLDEVVAHNSDYCLCIVRVMSQHRAFRIAEYMEALGIPTLNSSRAIQICADKAIQALILANRDVIKQPHFSILRNYEDLSNFNGKMVVKPVSSSWGRGISLIENEDALTTWKISHQELDIQNQNLPYLIQEFIDKPNYDVRIVIINTKPVVAFKRVSANNWKTNTHLGATVVPIVIDDSINKIVTEIIKVVGPGIYGLDLMKNRQNEWIFCEINQNPEFAHSWKIHHVDVAEKIAQYVSSKVKVGQKNASTHLEHHHHHH	failed
MPNTTAKKDYTKYSEKQLFNLIHQLERKIKKMQNDRISFKEKMAKELEKRDQNFKDKIDALNELLQKISQAFDDKRDCCLGHEIPNIETQQAMRDALNGINLTQIDSLDDFTNELKRENSKGFENVCFSV	failed
MPPMPVPIRILSVLLLVAMSASATAAPKKAPPASPPSSAGASSLEPVLAGEFALQAGQLDDAARAYLDAAKAEAGDAGLAERAARISMLANDDPRAIEALALWRARAPSSMSMRSTEASLALRRNDLRTARRDLLGLLKEPDPRGWRFALIALANGGREPEASADVLEDLVKAGAIPNQIEAWQEFGRLALRMERPALAKRIVDEVVRRFPEEPRVALLHATQLQQEGKNDEALALLKNIEPQAVKDSELRGALAFAYDAMGQTEAAARVLSTGPQDTQTYGLRASMLAKEKDRSSLEALYAELKSNATKPDPDRRLLLGKIAEFLKRYDEAVEWYRGVPGGPQLSEARLRAASALYELGRKPEALAEARALQGDASADDDARRDAYVLEAELHQRADDAPGELDAFERGLAAYPDDSALLYARGLAWERRDDVPRAEADLRKILVTEPENVAALNALGYTLADRTTRYKEALALIDRARTADPDNPAIVDSYGWVLYRMGRTKEALVQLRRAWALVKDPEIAAHVGEVLWVSGKQDEARRYFDEARRLDPDNRALQRAVEKFGL	failed
MPPPAAAAGLAGRPGRGAGSRLRPAVAAAGRRAHMIRCRHGGPRLQDIRNTVGNVPLEWYDDFPHVGYDLDGRRIYKPLRTRDELDQFLDKMDDPDYWRTVQDPMTGRDLRLTDEQVALVRRLQSGQFGDVGFNPYEPAVDFFSGDVMIHPVTNRPADKRSFIPSLVEKEKVSRMVHAIKMGWIQPRRPRDPTPSFYDLWAQEDPNAVLGRHKMHVPAPKLALPGHAESYNPPPEYLLSEEERLAWEQQEPGERKLSFLPRKFPSLRAVPAYGRFIQERFERCLDLYLCPRQRKMRVNVDPEDLIPKLPRPRDLQPFPTCQALVYRGHSDLVRCLSVSPGGQWLVSGSDDGSLRLWEVATARCVRTVPVGGVVKSVAWNPSPAVCLVAAAVEDSVLLLNPALGDRLVAGSTDQLLSAFVPPEEPPLQPARWLEASEEERQVGLRLRICHGKPVTQVTWHGRGDYLAVVLATQGHTQVLIHQLSRRRSQSPFRRSHGQVQRVAFHPARPFLLVASQRSVRLYHLLRQELTKKLMPNCKWVSSLAVHPAGDNVICGSYDSKLVWFDLDLSTKPYRMLRHHKKALRAVAFHPRYPLFASGSDDGSVIVCHGMVYNDLLQNPLLVPVKVLKGHVLTRDLGVLDVIFHPTQPWVFSSGADGTVRLFT	failed
MPPPTASTPDDSADPGPDFADVPPTDLVKVGFIFRPHGLDGELKIDPSATDDPARFEVLPTVFVGPHPRRVVRHDIASVRYQKTKRGITVILGLDGIVDRDDAEAVAKMDVFATEAALGLEDDELFADDLVGWTVVTEEGAVQGTVADFMEMPAQDLFVVRTPEDTEAMIPAIDDFIIEIDEEAERIVVRPIDGLMDALEHHHHHH	failed
MPPVPGVPFRNVDNDSPTSVELEDWVDAQHPTDEEEEEASSASSTLYLVFSPSSFSTSSSLILGGPEEEEVPSGVIPNLTESIPSSPPQGPPQGPSQSPLSSCCSSFSWSSFSEESSSQKGEDTGTCQGLPDSESSFTYTLDEKVAELVEFLLLKYEAEEPVTEAEMLMIVIKYKDYFPVILKRAREFMELLFGLALIEVGPDHFCVFANTVGLTDEGSDDEGMPENSLLIIILSVIFIKGNCASEEVIWEVLNAVGVYAGREHFVYGEPRELLTKVWVQGHYLEYREVPHSSPPYYEFLWGPRAHSESIKKKVLEFLAKLNNTVPSSFPSWYKDALKDVEERVQATIDTADDATVMASESLSVMSSNVSFSE	failed
